Results: US12324827B2, “Combination therapy for the treatment of migraines” (The University of Chicago, priority 2019, dated 2025)
Several values for one entry are separate records, joined by “and”; a condition that tells them apart may be missing. Equal values may be shown once. Entries after “also recorded” stand apart in the source; their conditions may differ.

Tests used:
[1] = Blood glucose after nose-to-brain (N2B) delivery of IGF-1; format: in vivo, Wistar rats; conditions: for blood glucose level: n=4/group; for hypoglycemia: after nasal (N2B) delivery of IGF-1
Experimental: (§1) N2B delivery of 150 μg human recombinant IGF-1 (#191-G1; R&D Systems, Minneapolis, MN) in 50 μL sodium succinate buffer followed the previously described approach (21,51) that was based on the techniques of Liu and coworkers (24) in the recording laboratory under isoflurane anesthesia with spontaneous ventilation.
Blood glucose was monitored in a subset of animals. Immediately before N2B treatments and while anesthetized, blood glucose was sampled at time zero using a sterile, 27 gauge hypodermic needle to puncture the tip of the tail. A second drop of blood from punctures was used for glucose measurements (Contour Next EZ; Ascensia Diabetes Care, US, Inc.; Parsippany, NJ). After N2B treatments (IGF-1 or vehicle), animals were briefly re-anesthetized and maintained as above for each blood draw done over time (i.e., 0.3, 3, 6, and 24 hours).

[2] = system: rat hippocampal brain slice cultures; conditions: cited from earlier work
[3] = system: caudal trigeminal nucleus c-fos; test: c-fos immunostaining of caudal trigeminal nucleus after recurrent spreading depression; format: in vivo, rat; conditions: −4.5 mm from the obex, n=6/group
Text: Induction of recurrent SD followed previously published aseptic techniques from the inventors' laboratory (8, 13, 21, 25, 26, 51) (FIG. 4). Animals were anesthetized with 5% isoflurane, which was later reduced to 1.5% inhalational isoflurane in oxygen during procedures and followed previous procedures for assessing the impact of recurrent SD after pretreatment with N2B IGF-1 (21, 51)).
One day after N2B treatment and surgery, animals were again anesthetized with 5% isoflurane in oxygen that was reduced to 1.5% during recordings of CSD followed by procedures to induce recurrent CSD every 10 minutes for 90 minutes as previously described (FIG. 4) (21,51). […]
For c-fos image analyses, the 5× digitally stored TIFF files were electronically enlarged to facilitate cell counting to 6,400×6,400 pixels and adjusted for brightness/contrast equivalently between experimental group pairs using Image J (v. 1.43i; National Institutes of Health public access). c-fos labeled nuclei were manually counted by an observer blinded to experimental conditions. Only intensely stained, round or oval-shaped nuclei were counted in lamina I-II [obex through −6.0 mm, recording the average of n=3 sections (technical replicates) at each anatomical level per animal (n≥5 biological replicates/group)]. […]

trigeminal ganglion CGRP = test: CGRP immunostaining of trigeminal ganglion after recurrent spreading depression; format: in vivo, rat; conditions: n=5/group
Experimental: as §1
(§2) Induction of recurrent SD followed previously published aseptic techniques from the inventors' laboratory (8, 13, 21, 25, 26, 51) (FIG. 4). […]
(§3) Imaging was performed using a Photometrics self-calibrating digital camera QuantEM-512SC camera (500×500 pixels; Photometrics, Tucson, AZ) run on MetaMorph software (v. 7.0.4; Molecular Devices, Sunnyvale, CA) under blinded conditions (as previously described (13, 20-22). Image exposure, camera gain and thresholding were uniformly set (i.e., equivalently for experimental and sham groups for each imaging metric (i.e., MDA, CGRP and c-fos). Resultant images were digitally stored as TIFF files for subsequent analyses that continued under blinded conditions where image integrated fluorescence intensity was registered using MetaMorph software for MDA and CGRP.
(§4) Images of MDA and CGRP were analyzed while blinded and later decoded to ratios of experimental/sham image integrated optical intensity, a sensitive metric that not only accounts for the area but also the pixel intensity of related image fluorescence. […]

[4] = system: trigeminal ganglion malondialdehyde; test: Malondialdehyde (oxidative stress) immunostaining of trigeminal ganglion after recurrent spreading depression; format: in vivo, rat
Experimental: as §1, §2, §3, §4

Substance: IGF-1: human recombinant IGF-1 (#191-G1; R&D Systems), 150 μg in 50 μL sodium succinate buffer, delivered nose-to-brain
- blood glucose level ([1]; 0.3-hour after N2B IGF-1 150 μg, non-fasted rats): 196 ± 22 mg/dL
- blood glucose level ([1]; 3.0-hour after N2B IGF-1 150 μg): 114 ± 14 mg/dL
- blood glucose level ([1]; 6.0-hour after N2B IGF-1 150 μg): 134 ± 7 mg/dL
- blood glucose level ([1]; 24-hour after N2B IGF-1 150 μg): 150 ± 40 mg/dL
- hypoglycemia [1]: did not induce hypoglycemia; also recorded: did not see evidence of hypoglycemia; also recorded: did not evoke hypoglycemia; also recorded: no evidence of hypoglycemia; also recorded: did not cause hypoglycemia; also recorded: no hypoglycemic effect; also recorded: did not trigger hypoglycemia
- hypoglycemia ([1]; listed as insulin-like growth factor-1): no impact on blood glucose levels occurred
- lowest IGF-1 glucose-related level seen ([1]; normal range for Wistar rats 85-132 mg/dL, control 132 mg/dL at time 0): 114 mg/dL
- oxidative stress from menadione exposure ([2]; brain slice cultures in vitro): significantly reduced
- spreading depression in slice cultures ([2]; rat hippocampal brain slice cultures): significantly inhibited spreading depression
- relative c-fos positive cell counts (sham set to 1.00) [3]: 0.52±0.11
- log-ratio (IGF-1/sham) of CGRP immunostaining after recurrent CSD (trigeminal ganglion CGRP): −0.90±0.15
- reduction of malondialdehyde levels in the trigeminal ganglion after recurrent SD ([4]; N2B IGF-1 150 μg a day before 90 minutes of recurrent SD, p<0.001): 82% and 83%
- natural logarithm ratio (IGF-1/sham) of MDA immunostaining after recurrent SD ([4]; n=5/group): −1.37±0.40
